Tests used:
[1] = target: δ25-60(Y) peptide (regions B+C of the HDAg multimer-forming domain, with C-terminal tyrosine) (hepatitis delta virus (American strain)); assay: CD spectroscopy in PBS at 37° C.
[2] = target: δ12-49 peptide (regions A+B of the HDAg multimer-forming domain) (hepatitis delta virus (American strain)); assay: CD spectroscopy in PBS at 37° C.
[3] = target: the molecule itself; assay: glutaraldehyde cross-linking, MALDI-TOF mass spectrometry

In the case of “δ25-60(Y) peptide (regions B+C of the HDAg multimer-forming domain, with C-terminal tyrosine)”, the [θ222]/[θ208] ratio (indicator of coiled-coil formation) [1] is reported as 0.76.

B1: δ12-49 peptide (regions A+B of the HDAg multimer-forming domain) (peptide)
peptide: GREDILEQWVSGRKKLEELERDLRKLKKKIKKLEEDNP
With B1 the [θ222]/[θ208] ratio (indicator of coiled-coil formation) [2] was 0.79.

B2: recombinant small delta antigen (r-HDAg-S), full length, expressed in E. coli from plasmid pR5δV5 (other)
chain: SRSERRKDRGGREDILEQWVSGRKKLEELERDLRKLKKKIKKLEEDNPWLGNIKGIIGKKDKDGEGAPPAKKLRMDQMEIDAGPRKRPLRGGFTDKERQDHRRRKALENKRKQLSSGGKSLSREEEEELKRLTEEDEKRERRIAGPSVGGVNPLEGGSRGAPGGGFVPSMQGVPESPFARTGEGLDIRGSQGFP
notes: also called r-δAg-S; rδAg-S
With B2 the “ratio of the masses of the cross-linked species to the monomer” value [3] was 8.1.
